This data set deals with T1, alpha-fetoprotein (AFP) (UniProt P02771 19-609).
T1 sequence: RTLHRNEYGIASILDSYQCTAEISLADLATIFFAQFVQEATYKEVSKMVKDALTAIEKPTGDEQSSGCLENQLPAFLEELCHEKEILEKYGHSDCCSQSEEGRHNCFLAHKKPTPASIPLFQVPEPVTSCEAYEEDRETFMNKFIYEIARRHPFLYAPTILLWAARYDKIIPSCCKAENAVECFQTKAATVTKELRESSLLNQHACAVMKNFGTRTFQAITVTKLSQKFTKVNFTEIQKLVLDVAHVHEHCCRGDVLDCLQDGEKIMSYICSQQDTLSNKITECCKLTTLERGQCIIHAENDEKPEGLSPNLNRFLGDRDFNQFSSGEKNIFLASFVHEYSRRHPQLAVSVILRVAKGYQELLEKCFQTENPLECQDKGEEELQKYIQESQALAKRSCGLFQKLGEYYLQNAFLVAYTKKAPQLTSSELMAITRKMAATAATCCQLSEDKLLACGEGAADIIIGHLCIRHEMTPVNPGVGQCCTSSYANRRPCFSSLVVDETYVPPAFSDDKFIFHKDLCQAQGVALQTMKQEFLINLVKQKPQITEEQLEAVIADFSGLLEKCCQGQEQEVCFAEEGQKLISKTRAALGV
The data set is described as follows: fluorescence sandwich aptasensor (magnetic capture); capture aptamer on Fe3O4@MPTMS@AuNPs; AFP 0.005-10 ng/mL; LOD 1.429 pg/mL is not a Kd; PBS 10 mM, pH 7.4 (aptamer 1 immobilization); room temperature, 30 min AFP then 30 min aptamer 2; 15 nM aptamer 1, 8 ug/mL AIEgen aptamer 2, 10 ug/mL Fe3O4@MPTMS@AuNPs. The settings on record: label: immobilized on Fe3O4@MPTMS@AuNPs.

B1: Aptamer 1 (AFP aptamer, 3'-SH) (ssDNA)
DNA: GTGACGCTCCTAACGCTGACTCAGGTGCAGTTCTCGACTCGGTCTTGATGTGGGTCCTGTCCGTCCGAACCAATC
modifications: 3'-thiol
B1: the binding result is listed as “binds”.

For the origin of these results see paper PMC10046738, “Detection of Alpha Fetoprotein Based on AIEgen Nanosphere Labeled Aptamer Combined with Sandwich Structure of Magnetic Gold Nanocomposites”.
